We go through one molecule from article PMC8808280 (Nature, 2021).

The experiment concerns the target T1, Receptor-associated protein (RAP) (human, UniProt P30533 35-353).
T1 sequence (looked up): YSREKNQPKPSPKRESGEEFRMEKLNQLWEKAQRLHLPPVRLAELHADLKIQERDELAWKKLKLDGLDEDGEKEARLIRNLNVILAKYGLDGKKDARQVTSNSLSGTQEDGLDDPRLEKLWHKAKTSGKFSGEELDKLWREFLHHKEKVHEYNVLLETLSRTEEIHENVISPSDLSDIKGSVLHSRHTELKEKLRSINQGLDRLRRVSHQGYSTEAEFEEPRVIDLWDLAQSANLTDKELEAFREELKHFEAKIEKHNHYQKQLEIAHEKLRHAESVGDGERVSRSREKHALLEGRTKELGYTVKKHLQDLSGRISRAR
In words: BLI. For orientation: BLI is a label-free optical method that tracks binding on a fibre tip over time.

B1: ApoER2 isoform 1 LBD-Fc fusion protein (Fc fusion)
chain: not shown
For B1, the binding result is recorded as “binds”.
